# Assay results reported in patent publication US20250115640A1, “NEUROPROTECTIVE POLYPEPTIDE COMPOUND AND APPLICATION THEREOF” (Innerse (Zhuhai) Pharmaceutical Co., Ltd., priority 2021, published 2025).
# Several values for one entry are separate records, joined by “and”; a condition that tells them apart may be missing. Equal values may be shown once.
# Tests used:
# Assay type in all cases: in vivo, Sprague-Dawley (SD) rats
# [1] = system: MCAO ischemia-reperfusion model; experiment: MCAO ischemia-reperfusion model, rat Neurological Severity Scores (NSS) (Example 6)
# From the text: 3) Cerebral ischemia reperfusion surgery: • A. Isolating and exposing blood vessels: the skin of the surgical area was shaved, and the rats were placed under a surgical microscope. The skin of the rat was cut along the midline with ophthalmic scissors, with a cut of about 2 cm length. Through the right neck of the rat, the muscle tissue of the right neck was bluntly isolated and opened with a microforcep to expose the right common carotid artery (CCA), and then isolated upward along the common carotid artery to further expose the external carotid artery (ECA) and internal carotid artery (ICA); • B. The proximal end of CCA was ligated and the CCA at the Y-shaped branch was temporarily clamped; the ligated site of CCA to the clamped site of ICA were threaded, tied with a loose knot (pre-ligation) for later use, and a small incision at the proximal end of the pre-ligation was made; • C. Inserting the suture emboli: Suture emboli No. 4-0 was inserted through the incision of CCA, pushed slowly and gently into the internal carotid artery, and stopped temporarily at the artery clamp of ICA. The pre-ligation thread was tied tightly (to avoid severe bleeding when pushing the suture emboli), then the artery clamp that blocked the blood flow of ICA was removed, and the suture emboli was immediately pushed into ICA until entering into the cranium. One should be careful not to insert the suture emboli into the pterygopalatine artery, which is another branch of the internal carotid artery and is one of the extra-cranial branches of ICA. […] Then the insertion was terminated and the time was recorded. […] Note: The first digit of the animal number represents the group (1, 2, 3 and 4 represent the model control group, S3 group, t-PA group and S3+t-PA group respectively), and the second letter represents the gender (M is male), the last three digits represent the animal serial number. a means giving 3 mL S3 and 3 mL sterile water for injection, b means giving 3 mL t-PA and 3 mL sterile water for injection, c means giving 3 mL S3 and 3 mL t-PA. • Route of administration: tail vein injection; • Administration time: immediately after ischemia-reperfusion (within 5 minutes); • Dosing frequency and cycle: 1 dose; • The day of modeling was defined as D0, and the day before was defined as D-1. • Measurement time: 24 hours before the modeling, 24 and 72 hours after the modeling; • Animals measured: all the surviving animals planned to be measured; • Measurement method: a motor function test, sensory test, balance test, and reflex and abnormal behavior test were performed on animals, according to the rat for details. […]
# [2] = system: MCAO ischemia-reperfusion model; experiment: MCAO ischemia-reperfusion model, TTC staining, cerebral infarct area and inhibition rate (Example 6)
# [3] = Body weight of MCAO model animals (Example 6); details: individual animal
# Procedure: • Animals measured: all the surviving experimental animals planned to be measured; • Measurement time: the body weight was measured at least twice during the adaptation period, once 24 hours before surgery for grouping, and once 24 hours after surgery.
# Cerebral ischemia-reperfusion is an acute injury model, wherein the weight of experimental animals will drop dramatically after MCAO modeling. Thus, the weight of experimental animals is one of the most basic sensitive parameters to comprehensively reflect the health status of animals. In this experiment, the body weight of all the animals was monitored on the day before the surgery and on the first day after the surgery, and the changes of animal's body weight were observed and recorded.
# [4] = 3 mg/kg i.v. immediately after reperfusion, 24 h after surgery, group mean ± SD
molecule,measurement,setting,value
"t-PA: recombinant human TNK tissue-type plasminogen activator for injection (Mingfule) purchased from Guangzhou Mingkang Bioengineering Co., Ltd. (protein, UniProt P00750 36-562, looked up, variant T103N N117Q K296A H297A R298A R299A, tenecteplase (TNK-tPA), Mingfule) Tissue-type plasminogen …: SYQVICRDEKTQMIYQQHQSWLRPVLRSNRVEYCWCNSGRAQCHSVPVKSCSEPRCFNGGTCQQALYFSDFVCQCPEGFAGKCCEIDTRATCYEDQGISYRGNWSTAESGAECTNWQSSALAQKPYSGRRPDAIRLGLGNHNYCRNPDRDSKPWCYVFKAGKYSSEFCSTPACSEGNSDCYFGNGSAYRGTHSLTESGASCLPWNSMILIGKVYTAQNPSAQALGLGKHNYCRNPDGDAKPWCHVLKNRRLTWEYCDVPSCSTCGLRQYSQPQFRIKGGLFADIASHPWQAAIFAAAAASPGERFLCGGILISSCWILSAAHCFQERFPPHHLTVILGRTYRVVPGEEEQKFEVEKYIVHKEFDDDTYDNDIALLQLKSDSSRCAQESSVVRTVCLPPADLQLPDWTECELSGYGKHEALSPFYSERLKEAHVRLYPSSRCTSQHLLNRTVTDNMLCAGDTRSGGPQANLHDACQGDSGGPLVCLNDGRMTLVGIISWGLGCGQKDVPGVYTKVTNYLDWIRDNMRP","NSS D2, individual animals","[1]; 3 mg/kg i.v. immediately after reperfusion, after surgery, individual animal",7 (2×) and 8 and 7.5 (2×) and 6.5 (2×) and 6 and 5.5
same,NSS D 2,"[1]; 3 mg/kg i.v. immediately after reperfusion, one day after surgery, group mean ± SD",6.83±0.75
same,NSS reduction rate,"[1]; one day after surgery, relative to model control group, group mean ± SD",11.83±9.62%
same,"NSS reduction rate, individual animals","[1]; relative to model control group, individual animal",9.68% (2×) and −3.23% and 3.23% (2×) and 16.13% (2×) and 22.58% and 29.03%
same,"Infarct area, individual animals","[2]; 3 mg/kg i.v. immediately after reperfusion, 24 h after modeling, individual animal",19.069% and 18.394% and 16.546% and 21.064% and 19.195% and 18.719% and 16.209% and 18.356% and 19.147%
same,Infarct area weight,[2]; [4],0.26 ± 0.022 g
same,infarct area,[2]; [4],18.522±1.372%
same,Cerebral infarct inhibition rate,"[2]; 3 mg/kg i.v. immediately after reperfusion, 24 h after surgery, vs model control, group mean ± SD",22.802±5.719%
same,"Weight of infarct area, individual animals","[2]; 24 h after modeling, individual animal",0.291 g and 0.268 g and 0.229 g and 0.289 g and 0.272 g and 0.260 g and 0.230 g and 0.239 g and 0.265 g
same,"Cerebral infarct inhibition rate, individual animals","[2]; vs model control group, individual animal",20.521% and 23.336% and 31.037% and 12.207% and 19.996% and 21.984% and 32.445% and 23.493% and 20.196%
same,"Body weight D 2, individual animals",[3]; after surgery and administration,230.57 g and 203.58 g and 203.63 g and 199.35 g and 205.31 g and 223.28 g and 223.30 g and 217.60 g and 200.68 g
same,"Body weight D 0, individual animals",[3]; before surgery (baseline),289.15 g and 246.68 g and 263.91 g and 259.23 g and 273.31 g and 281.77 g and 281.59 g and 273.94 g and 251.02 g
